The target of the experiment is Cdc4 (UniProt P07834). In words: His-Far1. Conditions: reference: wild type Far1(85-150).

For the substance “Far1 85-150 (from UniProt P21268) S91 mutant (taken as S91A; not spelled out in text)”, the “binding against the reference” value (sites S91) is “lost”.
On to “Far1 85-150 (from UniProt P21268) S87 mutant (taken as S87A; not spelled out in text)”, for which the “binding against the reference” value (sites S87) is on record as “lost”.

The values above are taken from article PMC7809796.
